The results in this text go back to patent US20170240651A1 (Sanofi, published 2017).

The target in test [1] is T1, human anterior gradient protein 2 (AGR2) (human, UniProt O95994 21-175).
T1 chain: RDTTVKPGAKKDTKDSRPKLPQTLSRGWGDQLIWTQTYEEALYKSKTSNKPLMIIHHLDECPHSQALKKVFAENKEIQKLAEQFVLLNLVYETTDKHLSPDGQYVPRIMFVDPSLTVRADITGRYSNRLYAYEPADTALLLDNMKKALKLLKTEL
Kind of test: competitive ELISA.

The target in test [2] is T2, AGR2 deletion mutant lacking the epitope … (UniProt O95994 21-175).
T2 construct: Made from the pcDNA3-AGR2-His eukaryotic expression plasmid by deletion mutagenesis; also called the mutated AGR2 protein; not shown: His tag of the pcDNA3-AGR2-His plasmid
T2 sequence (looked up): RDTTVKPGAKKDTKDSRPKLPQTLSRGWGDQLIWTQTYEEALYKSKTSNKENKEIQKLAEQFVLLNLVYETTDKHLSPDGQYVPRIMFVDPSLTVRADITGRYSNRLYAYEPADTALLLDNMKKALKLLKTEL
The experiment in a line: western blot. As to the method:
The amino sequence of the monoclonal antibody corresponding to the epitopes of the antigen AGR2 was determined (see FIG. 23). The procedure was as followed: RNA was extracted from MCF cells. mRNA of AGR2 was obtained by PCR and reverse transcribed to obtain cDNA. The pcDNA3-AGR2-His eukaryotic expression plasmid was constructed and AGR2 was subjected to mutation by deletion. The upstream primer for the mutation was 5′-[…]-3′, and the downstream primer was 5′-[…]-3′. Such a mutation led to the deletion of the epitope […]. […] Then AGR2 was subjected to point mutation. The upstream primer for the mutation was 5′-[…]-3′, and the downstream primer was 5′-[…]-3′, wherein the “C” in the PDI active site “CXXS” was mutate to “S”. […] It was determined that the monoclonal antibody specifically bound to the epitope “[…]”, and may inhibit the PDI activity.

Test [3] addresses T3, human anterior gradient protein 2 (AGR2) (human, UniProt O95994 21-175, limits assumed).
T3 construct: also called hAG-2; antigen AGR2
T3 sequence (looked up): T1 chain
Kind of test: competitive ELISA, AGR2 coated, antibody pre-incubated with soluble antigen. Here is the method:
The generated humanized antibody 18A4Hu1 was subjected to an affinity analysis and compared with the murine 18A4 antibody. Specifically, 3 ng/μl antigen AGR2 was used for coating the 96 well ELISA plates at 100 μl per well and blocked with blocking solution. Antibodies at 0.1 ng/μl were mixed 1:1 with antigens of different concentrations and incubated at 37° C. overnight, wherein the antigen concentration was serially diluted from 1000 nM. 100 μl incubated mixture was separately added into different ELISA plates and incubated at 37° C. for 1 hour. After washing the ELISA plates, the HRP-labeled secondary antibodies against human or mouse were added and incubated at 37° C. for 1 hour. Color development solutions A and B were added, each at 80 μl, and color was allowed to develop at 37° C. for 30 min. The reaction was stopped by adding 50 μl stopping solution and absorbance was determined at OD 450. Affinity plate was depicted and the affinities of the antibodies were calculated.

B1: murine anti-human AGR2 protein monoclonal antibody 18A4 (antibody, V domains shown)
VH: EVQLQQFGAELVKPGASVKISCKASAYTFTDYNMDWVKQSHGKSLEWIGDINPNYDTTSYNQKFKGKATLTVDKSSSTAYMELRSLTSEDTAVYYCARSMMGYGSPMDYWGQGTSVTVSS
VL: DIVLTQSPASLTVSLGQRATISCRASKSVSTSGYSYMHWYQRKPGQPPKLLIYLASNLESGVPARFSGSGSGTDFTLNIHPVEGEDAATYYCQHIRELPRTFGGGTKLEIK
notes: also called murine 18A4; the monoclonal antibody
For B1, binding in test [1] was characterised by a dissociation constant (Kd) of 1.7 nM. The binding result in test [2] was “no binding”.

B2: humanized antibody 18A4Hu1 (antibody, V domains shown)
VH: QVQLVQSGAEVKKPGASVKVSCKASGYTFTDYNMDWVRQAPGQGLEWIGDINPNYDTTSYNQKFKGKATLTVDKSTSTAYMELSSLRSEDTAVYYCARSMMGYGSPMDYWGQGTLVTVSS
VL: EIVLTQSPATLSLSPGERATLSCRASKSVSTSGYSYMHWYQQKPGQAPRLLIYLASNLESGIPARFSGSGSGTDFTLTISRLEPEDFAVYYCQHIRELPRTFGGGTKLEIK
B2: the binding result in test [3] is “binds”. Besides, in test [1], the dissociation constant (Kd) amounted to 3.02 nM.
